The target of experiment [1] is HA protein of FJ13 virus in infected MDCK cells (Influenza A virus A/duck/Fujian/13/2002 …, UniProt Q9Q0U6, strain). The experiment can be described thus: immunostaining of cells or tissue. The following applies: partners not purified.
Experiment [2] has as its target HA protein on FJ13 virus (A/duck/Fujian/13/2002, H5N1), virus particles (Influenza A virus A/duck/Fujian/13/2002 …, UniProt Q9Q0U6, strain). Nature of the experiment: ELISA. The following applies: one partner purified. In general terms: ELISA stands for enzyme-linked immunosorbent assay.

B1: scFv3 secreted from DF-1 cells, c-Myc tagged (scFv, V domains shown)
VH: AVTLDESGGGLQTPGGALSLVCKASGFTFSSYDMYWVRQAPGKGLEFVAIINSGGSTSYYASAVKGRATISRDNGQSTVRLQLNNLRADDTGTYYCAKGPSAIDAWGHGTEVIVSS
VL: ALTQPSSVSANPGETVKITCSGGSSTYGYSWHQQKSPGSAPVTVVYSNDERPSDIPSRFSGSKSGSTGTLTITGVQADDEAIYYCGTYGSTDSGYVGIFGARTTLTVL
Regarding B1, the binding result in experiment [1] and in experiment [2] was “binds” each time.

Source of the values: paper PMC4264339 (Virology Journal, 2014).
